Results: patent US7053044B1, “Artificial peptides having surface activity and the use thereof in the preparation of artificial surfactant” (Chiesi Farmaceutici S.p.A., priority 1999, dated 2006)
Ends that are not written are not given here.

B1: SP-C(LKS) (peptide)
peptide: FGIPSSPVHLKRLLILKLLLLKILLLKLGALLMGL
modifications: ends and bridges not checked
notes: The non-acylated form was run in SDS-PAGE; also called analogue of SP-C

Assays:
[1] = SDS-PAGE (oligomer formation); type: physicochemical
Text: The purity of the peptide was checked by sodium-dodecylsulphate (SDS) polyacrylamide gel electrophoresis (PAGE) (Phast-system, Pharmacia, Sweden) and by reversed phase high performance liquid chromatography (HPLC), using a C18 column and a linear gradient of 60% aqueous methanol/0.1% TFA and isopropanol/0.1% TFA (Gustafsson, M. et al. (1997) Biochem. J. 326, 799–806).

[2] = Preparation of peptide/lipid mixtures (attainable lipid concentration); type: physicochemical; details: polypeptide/lipid ratio of 0.03
Experimental: DPPC, PG and PA were all purchased from Sigma Chemical Co. (St Louis, Mo.). The lipids, dissolved in chloroform/methanol 98:2 (v/v), were mixed in the proportions DPPC:PG:PA 68:22:9 (w/w/w) or DPPC/PG 7:3 (w/w). Surfactant preparations were prepared by adding SP-C(LKS) alone or SP-C(LKS) and SP-B, to each of the lipid mixtures, at total polypeptide/lipid weight ratios of 0–0.05. The mixtures were evaporated under nitrogen and resuspended in 150 mmol/l NaCl or in 10 mmol/l Hepes buffer pH 6,9 containing 140 mmol/l NaCl and 2.0 mmol/l CaCl2, at lipid concentrations of 10–80 mg/ml. Repeated freezing and sonication (50 W, 48 kHz) were performed until homogeneous suspensions were achieved. In some cases the final suspensions were incubated at 45° C. for 1 h.

[3] = Peptide secondary structure by circular dichroism (CD) spectroscopy; type: physicochemical
Experimental: Peptide secondary structure was investigated using circular dichroism (CD) spectroscopy (Jasco-720 Jasco, Japan). After solubilisation with triflouroethanol (TFE) spectra were recorded from 260 to 184 nm with a scan speed of 20 nm/min and a resolution of 2 data points/nm. The residual molar ellipticy was calculated and expressed in kdeg×cm^2/dmol. Molar ellipticities at 208 and 222 nm were utilised for estimating the content of helical structure (Barrow, C. J. et al. (1992) J. Mol. Biol. 225, 1075–1093).

[4] = Nilsson, G. et al. (1998) Eur. J. Biochem. 255, 116–124; cited from earlier work
[5] = Surface film stability, captive bubble system; type: physicochemical; details: surfactant mixtures, samples containing 5% of peptide
Experimental: In an even more preferred embodiment of the invention, surfactant mixtures containing the peptide in which palmitoyl chains are O-covalently linked to the Ser residues should be used. […] In the samples containing 5% of dipalmitoylated peptide, the γmin was below 1.5 mN/m and the films very stable, as the surface tension increased by less than 0.5 mN/m within 10 min at constant bubble volume.

[6] = target: the molecule itself; test: SDS-PAGE, self-association (oligomerisation)

| Molecule | SDS-PAGE pattern (oligomerisation) [1] | lipid concentration of peptide/lipid mixture that could be made [2] | α-helical content ([3]; solubilised in TFE, estimated from the 208 nm and 222 nm minima) | secondary structure on dilution ([3]; stepwise dilution with H2O until 12% TFE, peptide solubilized in neat TFE) | highest concentration of lipid-peptide mixture that can be prepared / solubilized [4] | γmin (captive bubble system) [5] | binding result [6] |
| --- | --- | --- | --- | --- | --- | --- | --- |
| FGIPSSPVHLKRLLILKLLLLKILLLKLGALLMGL [SP-C(LKS), SP-C analogue: Val 16–28 replaced with Leu, Lys at 17, 22, 27, Cys 5 and 6 replaced with Ser] | single band | 80 mg/mL | approximately 75% | remained stable |  |  |  |
| SP-C(Leu): reference peptide; transmembranous SP-C analogue with all helical Val residues replaced with Leu (Nilsson et al.) (FGIPSSPVLKRLLILLLLLLLILLLILGALLMGL) | forms oligomers |  |  |  | ≤ 20 mg/mL | approx. 5 mN/m |  |
| B1 |  |  |  |  |  |  | no binding |
